Data reported in publication PMC2852416, “Modular Insulators: Genome Wide Search for Composite CTCF/Thyroid Hormone Receptor Binding Sites”.

Experiments:
GST-TR (TRbeta) [1] = biological target: T1, GST-TR (TRbeta) (human, UniProt P10828 1-461); assay: competition; mutated F2 against COMT DR4 probe; PBS pH 7.4, 5 mM MgCl2, 1 mM ZnCl2, 1 mM DTT, 0.1% NP-40, 10% glycerol, 200 ng/ul pdIdC, 25-100 ng/ul salmon sperm DNA, 20 min room temperature; 5% PAGE in TAE; settings: protein: recombinant; tags: GST; 5' overhangs 4 nt
T1 sequence: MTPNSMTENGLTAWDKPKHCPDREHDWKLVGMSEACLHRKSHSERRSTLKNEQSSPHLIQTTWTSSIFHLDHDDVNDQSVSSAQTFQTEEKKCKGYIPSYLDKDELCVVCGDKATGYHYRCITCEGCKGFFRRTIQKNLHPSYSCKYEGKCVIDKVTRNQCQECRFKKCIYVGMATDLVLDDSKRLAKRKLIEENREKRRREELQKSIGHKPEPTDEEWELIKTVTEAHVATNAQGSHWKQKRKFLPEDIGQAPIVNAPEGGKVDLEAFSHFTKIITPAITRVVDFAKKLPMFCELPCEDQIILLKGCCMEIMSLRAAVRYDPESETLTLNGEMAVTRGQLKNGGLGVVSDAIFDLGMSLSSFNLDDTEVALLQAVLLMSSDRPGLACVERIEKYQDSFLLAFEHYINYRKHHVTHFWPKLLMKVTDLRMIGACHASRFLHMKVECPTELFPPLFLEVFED

GST-TR (TRbeta) [2] = biological target: T1, GST-TR (TRbeta); assay: competition; 50-fold excess against COMT DR4 probe; PBS pH 7.4, 5 mM MgCl2, 1 mM ZnCl2, 1 mM DTT, 0.1% NP-40, 10% glycerol, 200 ng/ul pdIdC, 25-100 ng/ul salmon sperm DNA, 20 min room temperature; 5% PAGE in TAE; settings: protein: recombinant; tags: GST; label: 32P; 5' overhangs 4 nt
GST-TR (TRbeta) [3] = biological target: T1, GST-TR (TRbeta); assay: EMSA; PBS pH 7.4, 5 mM MgCl2, 1 mM ZnCl2, 1 mM DTT, 0.1% NP-40, 10% glycerol, 200 ng/ul pdIdC, 25-100 ng/ul salmon sperm DNA, 20 min room temperature; 5% PAGE in TAE; settings: protein: recombinant; tags: GST; label: 32P; blunt

B1: F2mut TRE (dsDNA)
DNA 1: AGCTTTTAGTTACTTATTGGGTCCAGCTGATCCCAG
DNA 2: GATCCTGGGATCAGCTGGACCCAATAAGTAACTAAA
B1: no binding (GST-TR (TRbeta) [1]).

B2: F2 TRE (ER6) (dsDNA)
DNA 1: AGCTTTTAGTTACTTATTGACCCCAGCTGAGGTCAG
DNA 2: GATCCTGACCTCAGCTGGGGTCAATAAGTAACTAAA
B2: binds (GST-TR (TRbeta) [2]).

B3: COMT DR4 (dsDNA)
DNA 1: ACCCGAGGGCACCAGAGGGCACGAGA
DNA 2: TCTCGTGCCCTCTGGTGCCCTCGGGT
B3: binds (GST-TR (TRbeta) [3]).
